Laboratory results: paper PMC10696041

Target: mini-procollagen III
Test: SPR
Settings: 50 nM CUB1CUB2*, read off a plot; for response: immobilized mini-procollagen III (437 RU), parent: est. 31; for percent of parent (% binding / WT): immobilized mini-procollagen III (437 and 651 RU), parent: est. 100

Chain of CUB1CUB2* domains of PCPE-2, WT (from MBP-CUB1CUB2, MBP removed) (Q9UKZ9 whole entry, looked up, stated change not applied, tested part not stated): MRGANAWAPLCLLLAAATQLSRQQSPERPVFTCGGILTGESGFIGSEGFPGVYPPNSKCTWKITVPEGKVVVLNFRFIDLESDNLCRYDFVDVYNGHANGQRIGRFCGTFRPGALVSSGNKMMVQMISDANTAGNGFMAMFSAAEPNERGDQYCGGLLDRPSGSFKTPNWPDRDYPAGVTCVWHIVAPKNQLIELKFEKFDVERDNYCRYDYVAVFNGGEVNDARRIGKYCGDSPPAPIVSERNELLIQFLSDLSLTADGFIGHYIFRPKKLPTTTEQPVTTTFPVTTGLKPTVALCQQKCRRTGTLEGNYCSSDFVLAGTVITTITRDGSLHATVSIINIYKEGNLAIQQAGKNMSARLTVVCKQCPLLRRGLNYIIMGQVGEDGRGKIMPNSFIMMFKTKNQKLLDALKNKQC

response [RU]	percent of parent (% binding / WT)	Substance
8.5	22	CUB1CUB2* domains of PCPE-2, WT (from MBP-CUB1CUB2, MBP removed) (from UniProt Q9UKZ9) K46A; E197A; R220A
1	2	CUB1CUB2* domains of PCPE-2, WT (from MBP-CUB1CUB2, MBP removed) (from UniProt Q9UKZ9) F87A
27	97	CUB1CUB2* domains of PCPE-2, WT (from MBP-CUB1CUB2, MBP removed) (from UniProt Q9UKZ9) R150A
